B1: KLQEQIHRV (SEQ ID NO: 284) (peptide)
peptide: KLQEQIHRV
B2: SITAVTPLL (SEQ ID NO: 285) (peptide)
peptide: SITAVTPLL
B3: ILSDVTQGL (SEQ ID NO: 29) (peptide)
peptide: ILSDVTQGL
B4: HLTEDTPKV (SEQ ID NO: 286) (peptide)
peptide: HLTEDTPKV
B5: ILMGHSLYM (SEQ ID NO: 287) (peptide)
peptide: ILMGHSLYM
B6: RLAPEIVSA (SEQ ID NO: 288) (peptide)
peptide: RLAPEIVSA
B7: SLLAANNLL (SEQ ID NO: 289) (peptide)
peptide: SLLAANNLL
B8: IASPVIAAV (SEQ ID NO: 290) (peptide)
peptide: IASPVIAAV
B9: KIIDTAGLSEA (SEQ ID NO: 291) (peptide)
peptide: KIIDTAGLSEA
B10: KLINSQISL (SEQ ID NO: 292) (peptide)
peptide: KLINSQISL
B11: GLAMVEAISYV (SEQ ID NO: 293) (peptide)
peptide: GLAMVEAISYV
B12: KLYGPEGLELV (SEQ ID NO: 294) (peptide)
peptide: KLYGPEGLELV
B13: SLAAVSQQL (SEQ ID NO: 295) (peptide)
peptide: SLAAVSQQL
B14: ILSTLDVEL (SEQ ID NO: 30) (peptide)
peptide: ILSTLDVEL
B15: FILEPLYKI (SEQ ID NO: 296) (peptide)
peptide: FILEPLYKI
B16: ILQNGLETL (SEQ ID NO: 297) (peptide)
peptide: ILQNGLETL
B17: ALTDVILCV (SEQ ID NO: 298) (peptide)
peptide: ALTDVILCV
B18: RLLEEEGVSL (SEQ ID NO: 299) (peptide)
peptide: RLLEEEGVSL
B19: IVLERNPEL (SEQ ID NO: 300) (peptide)
peptide: IVLERNPEL
B20: LQFDGIHVV (SEQ ID NO: 301) (peptide)
peptide: LQFDGIHVV
B21: SLAELDEKISA (SEQ ID NO: 302) (peptide)
peptide: SLAELDEKISA
B22: FVWEASHYL (SEQ ID NO: 303) (peptide)
peptide: FVWEASHYL
B23: ALIRLDDLFL (SEQ ID NO: 304) (peptide)
peptide: ALIRLDDLFL
B24: AMLAQQMQL (SEQ ID NO: 305) (peptide)
peptide: AMLAQQMQL
B25: LTIDTQYYL (SEQ ID NO: 3) (peptide)
peptide: LTIDTQYYL
B26: KLYDEESLL (SEQ ID NO: 31) (peptide)
peptide: KLYDEESLL
B27: AQVALVNEV (SEQ ID NO: 306) (peptide)
peptide: AQVALVNEV
B28: FLLPVAVKL (SEQ ID NO: 307) (peptide)
peptide: FLLPVAVKL
B29: SLLDQIPEM (SEQ ID NO: 308) (peptide)
peptide: SLLDQIPEM
B30: SLSFVSPSL (SEQ ID NO: 309) (peptide)
peptide: SLSFVSPSL
B31: VMAEAPPGV (SEQ ID NO: 310) (peptide)
peptide: VMAEAPPGV
B32: YLHRQVAAV (SEQ ID NO: 311) (peptide)
peptide: YLHRQVAAV
B33: LIDDKGTIKL (SEQ ID NO: 314) (peptide)
peptide: LIDDKGTIKL
B34: VLNEDELPSV (SEQ ID NO: 32) (peptide)
peptide: VLNEDELPSV
B35: LLANIVPIAMLV (SEQ ID NO: 33) (peptide)
peptide: LLANIVPIAMLV
B36: LLWEDGVTEA (SEQ ID NO: 34) (peptide)
peptide: LLWEDGVTEA
B37: SLSSERYYL (SEQ ID NO: 35) (peptide)
peptide: SLSSERYYL
B38: VILDIPLLFET (SEQ ID NO: 36) (peptide)
peptide: VILDIPLLFET
B39: VLGNALEGV (SEQ ID NO: 37) (peptide)
peptide: VLGNALEGV
B40: YLTAEILELAGN (SEQ ID NO: 38) (peptide)
peptide: YLTAEILELAGN
B41: QLLPQGIVPAL (SEQ ID NO: 39) (peptide)
peptide: QLLPQGIVPAL
B42: FLNSVIVDL (SEQ ID NO: 40) (peptide)
peptide: FLNSVIVDL
B43: TLLGFFLAKV (SEQ ID NO: 4) (peptide)
peptide: TLLGFFLAKV
B44: ILASIFETV (SEQ ID NO: 41) (peptide)
peptide: ILASIFETV
B45: YLQDLVERA (SEQ ID NO: 42) (peptide)
peptide: YLQDLVERA
B46: ALLEGVKNV (SEQ ID NO: 43) (peptide)
peptide: ALLEGVKNV
B47: FIIEEQSFL (SEQ ID NO: 44) (peptide)
peptide: FIIEEQSFL
B48: FILDDSALYL (SEQ ID NO: 45) (peptide)
peptide: FILDDSALYL
B49: FLVEEIFQT (SEQ ID NO: 46) (peptide)
peptide: FLVEEIFQT
B50: GLLPKLTAL (SEQ ID NO: 47) (peptide)
peptide: GLLPKLTAL
B51: KILDEDLYI (SEQ ID NO: 48) (peptide)
peptide: KILDEDLYI
B52: TILGDPQILL (SEQ ID NO: 49) (peptide)
peptide: TILGDPQILL
B53: LLLDGLIYL (SEQ ID NO: 50) (peptide)
peptide: LLLDGLIYL
B54: VLQGLTFTL (SEQ ID NO: 5) (peptide)
peptide: VLQGLTFTL

Biological target: T1, HLA-A*02:01 (peptide-receptive MHC class I monomer after UV cleavage of the UV-sensitive ligand) (human)
T1 construct: MHC monomers loaded by UV-ligand exchange and captured on streptavidin plates
Assay: UV ligand-exchange ELISA; exchange yield grade (+ >=10%, ++ >=20%, +++ >=50%, ++++ >=75%)
Summary of the method: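 Exchange yield is an ELISA read-out: complexes diluted 100-fold, captured on streptavidin plates, detected with HRP anti-β2m and TMB at 450 nm. Standard curve from refolded HLA-A*02:01/MLA-001 (15-500 ng/ml); complexes made by UV-triggered displacement of a photolabile ligand by test peptide.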

Binder | peptide exchange yield [%]
B1 | 50 to 75
B2 | 50 to 75
B3 | 50 to 75
B4 | 50 to 75
B5 | ≥ 75
B6 | 50 to 75
B7 | ≥ 75
B8 | 50 to 75
B9 | 50 to 75
B10 | 50 to 75
B11 | ≥ 75
B12 | ≥ 75
B13 | 50 to 75
B14 | 50 to 75
B15 | ≥ 75
B16 | 50 to 75
B17 | ≥ 75
B18 | 50 to 75
B19 | 50 to 75
B20 | 50 to 75
B21 | 50 to 75
B22 | ≥ 75
B23 | 50 to 75
B24 | 50 to 75
B25 | 50 to 75
B26 | ≥ 75
B27 | 50 to 75

Binder | peptide exchange yield [%]
B28 | 50 to 75
B29 | 50 to 75
B30 | 50 to 75
B31 | 50 to 75
B32 | 50 to 75
B33 | 20 to 50
B34 | 50 to 75
B35 | ≥ 75
B36 | 50 to 75
B37 | 50 to 75
B38 | 50 to 75
B39 | 50 to 75
B40 | 20 to 50
B41 | 50 to 75
B42 | ≥ 75
B43 | 20 to 50
B44 | ≥ 75
B45 | ≥ 75
B46 | 50 to 75
B47 | 50 to 75
B48 | 50 to 75
B49 | 50 to 75
B50 | 50 to 75
B51 | 50 to 75
B52 | ≥ 75
B53 | 50 to 75
B54 | 50 to 75
